# From patent US7429564B2, “Oral insulin therapy” (Emisphere Technologies, Inc., priority 2002, dated 2008)
# Columns and labels:
# [1] = Delivery agent plasma concentrations in monkeys after oral administration; type: in vivo
# Description: Similar results were obtained when delivery agents 1-3 were administered orally to monkeys and the plasma concentrations of the delivery agents monitored over time and the AUC calculated.
# [2] = Example 7: 4-CNAB plasma concentrations; type: in vivo, human; details: after start of meal intake; 200 or 400 mg 4-CNAB
# Description: Blood samples for determination of 4-CNAB plasma concentrations (2 mL in sodium heparin tube) were drawn 10, 20, 30, 40, 60, 90, 120, 240 and 360 minutes after start of meal intake (9 samples per session). Blood samples for determination of insulin and C-peptide plasma concentrations (5 mL in sodium heparin tube) were drawn at −60 and −30 minutes, at time 0 (start of meal intake), and after 10, 20, 30, 40, 50, 60, 75, 90, 105, 120, 150, 180, 210, 240, 300, and 360 minutes (19 samples per session). Plasma concentrations of insulin were determined by a GLP-validated microparticle enzyme immunoassay (MEIA).
# rhesus monkeys = details: rhesus monkey, in vivo, 14 days
# Description: The present invention comprising compositions of insulin and the delivery agent 4-CNAB was evaluated for safety and toxicity in a nonclinical program that included pharmacological screening, pharmacokinetic profiling, and toxicity assessments in rats and monkeys.
# [3] = Example 5: plasma insulin pharmacokinetics, healthy male volunteers; details: human, in vivo
# Description: In Group 1, there were four escalating single doses of 4-CNAB (400, 800, 1400 and 2000 mg) and each subject received either all four of these escalating doses or three escalating single doses and one dose of placebo. […] In Group 3 there were three escalating oral doses of Insulin/4-CNAB (100 Units/300 mg, 100 Units/450 mg and 150 Units/100 mg) and one SC dose of 150 Units of insulin. Each subject received either all four of these treatments or three of these treatments and one placebo treatment. For all groups, there was a washout period of at least 72 hours between treatment periods.
# For insulin/4-CNAB treatment Groups 2 and 3, subjects' blood samples (1 drop per sample) were drawn at 15 minutes before dosing, and at 5, 10, 15, 20, 25, 30, 35, 40, and 50 minutes and at 1, 1.25, 1.5, 1.75, 2, 2.5, 3, 4, 6, 8 and 12 hours post-dose (21 samples per treatment for Insulin/4-CNAB dosing groups) for plasma glucose, insulin and C-peptide measurements. For the 4-CNAB alone treatment Group 1, blood samples were collected before dosing (−15 minutes), and at 30 minutes and at 2 hr post-dose for blood glucose measurements. For the insulin alone control group (minimum 3 subjects), blood samples (3 mL in sodium heparin tube) were drawn at 15 minutes before dosing, and at 10, 20, 30, 40, 50 minutes and 1, 1.25, 2, 2.5, 3 and 6 hr post-dose (12 samples per treatment). The blood samples for glucose were assayed in real time using a Glucometer®. These measurements were used for detection of onset of hypoglycemia, so rescue action could be taken where necessary. Plasma glucose, insulin and C-peptide measurements were done according to standard procedures.
# On the basis of plasma concentrations of 4-CNAB and insulin, PK analysis was performed using non-compartmental PK methods as implemented in WinNonlin™ Professional version 3.2. The profiles for insulin and C-peptide corrected insulin were evaluated up to 6 hours as food was given 6 hours following insulin treatment. The following parameters were derived for 4-CNAB: Cmax, tmax, AUC(0-t), AUC(0-inf), AUC% Extrap, Kel, t1/2, CL/F, Vd/F, MRT(0-t), MRT(0-inf) and Frel. The following parameters were derived for insulin and C-peptide corrected insulin: Cmax, tmax, AUC(0-2), AUC(0-6), AUC(0-t) and concentrations (C^b) and corresponding time (t^b) immediately prior to intervention for hypoglycemia.
# The plasma concentration-time profiles for 4-CNAB were evaluated in those subjects who received 4-CNAB or Insulin/4-CNAB treatments. Insulin, C-peptide and glucose concentration-time profiles following administration of all treatments were evaluated for the 20 subjects in Groups 2 and 3. Pharmacokinetic (“PK”) parameters for 4-CNAB, insulin and C-peptide corrected insulin, and pharmacodynamic (“PD”) parameters for glucose concentration change from baseline, respectively were calculated for subjects whether they required hypoglycemic rescue or not. Concentrations from subjects who required food/drink due to hypoglycemia were excluded from descriptive statistics.
compound,measurement,setting,value
"O=C(O)CCCNC(=O)c1ccc(Cl)cc1O [4-CNAB, 4-[(4-chloro, 2-hydroxybenzoyl)amino]butanoic acid]",Fold greater penetration of the GI mucosa vs delivery agent 1,[1]; 300 mg oral each,more than 11 fold
same,Fold greater penetration of the GI mucosa vs delivery agent 2,[1]; 300 mg oral each,more than 6 fold
same,AUC,"[1]; monkey, plasma, oral, 300 mg",499 ng·h/mL
same,4-CNAB plasma concentration after 2 hours relative to level at 10 minutes,[2],less than 10%
same,Highest proposed human dose (2000 mg) fold lower than NOAEL in monkeys,rhesus monkeys,12-16 fold
SC insulin: human regular insulin injected subcutaneously (Humulin R or equivalent; Calbiochem insulin in the rat studies),Cmax,[3]; sc,0.375 nM
same,Insulin AUC(0-2),[3]; sc,414.3 ± 181.5 pmol·h/L
same,Insulin AUC(0-6),[3]; sc,1228.5 ± 378.1 pmol·h/L
same,Insulin C^b (immediately prior to recovery from hypoglycemia),[3]; sc,168.3 ± 77.5 pmol/L
same,Insulin Cmax,[3]; sc,54.5 ± 25.6 uU/ml
same,"Insulin t^b, median (range)",[3]; sc,1.00 (0.75-1.25) h
same,Insulin tmax,[3]; sc,1.75 h
same,"Insulin tmax, median (range)",[3]; sc,1.88 (1.58-4.00) h
oral insulin alone: recombinant human zinc insulin given orally without delivery agent,Cmax,[3]; po,0.0384 nM
same,Insulin AUC(0-2),[3]; po,51.8 ± 15.5 pmol·h/L
same,"Insulin tmax, median",[3]; po,0.43 h
